Laboratory results taken from US20240101700A1 (BIOCON, published 2024).
Each block holds one molecule with its values, some of them ahead of it.

Assays:
CD6 [1] = biological target: T1, CD6 (human, UniProt P30203 18-668, tyrosine phosphorylation of the cytoplasmic domain (sites not given)); assay: co-immunoprecipitation with CD6 (pulled down by itolizumab) and immunoblot; PBMCs on plate-bound ALCAM against no ALCAM
T1 construct: whole, on cells; Endogenous CD6 of human PBMCs; also called CD6 receptor; hCD6
T1 sequence (looked up): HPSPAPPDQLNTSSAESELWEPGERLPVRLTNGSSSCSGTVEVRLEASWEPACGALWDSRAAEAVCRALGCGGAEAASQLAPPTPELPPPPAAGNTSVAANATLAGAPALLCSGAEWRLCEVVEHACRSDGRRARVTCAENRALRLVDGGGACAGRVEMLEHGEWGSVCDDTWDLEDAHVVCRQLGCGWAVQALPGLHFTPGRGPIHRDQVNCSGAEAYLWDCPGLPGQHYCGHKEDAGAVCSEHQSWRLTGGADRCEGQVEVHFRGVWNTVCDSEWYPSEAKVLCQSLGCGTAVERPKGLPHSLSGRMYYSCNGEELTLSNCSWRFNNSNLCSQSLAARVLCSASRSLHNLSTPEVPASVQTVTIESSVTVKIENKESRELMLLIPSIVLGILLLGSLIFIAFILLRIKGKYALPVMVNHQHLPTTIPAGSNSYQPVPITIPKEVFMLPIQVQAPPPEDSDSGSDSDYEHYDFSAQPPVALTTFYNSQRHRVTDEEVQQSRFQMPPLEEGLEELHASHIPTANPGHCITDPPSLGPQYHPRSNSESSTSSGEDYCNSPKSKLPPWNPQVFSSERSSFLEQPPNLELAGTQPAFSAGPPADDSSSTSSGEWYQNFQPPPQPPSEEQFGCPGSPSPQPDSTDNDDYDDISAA

CD6 [2] = biological target: T1, CD6; assay: cell-based or functional assay
CD6 [3] = biological target: T1, CD6; assay: immunoprecipitation of CD6 from human PBMC lysates and CD6 immunoblot
Description: In these experiments, PBMC were treated with 0.5 ng/ml anti-CD3 antibody (OKT 3) for 24 h in presence or absence of itolizumab or Iso Ab antibody. Cells were harvested and CD6 was immune-precipitated with itolizumab or Iso Ab. 10% total lysate served as input control samples. Both immune precipitated and input control samples were immune blotted and analyzed.

fold increase of association with CD6 (CD6 [1]): 3 to 4 fold
Molecule: SLP-76 (from UniProt Q13094 1-533)

fold increase of association with CD6 (CD6 [1]): 3 to 4 fold
Molecule: Zap70 (from UniProt P43403 1-619) (enzyme)

CD6 tyrosine phosphorylation (CD6 [2]): > 2.5 fold
phosphorylation of CD6 associated SHP1 and SHP2 (CD6 [2]): 3 to 4 fold
Molecule: Fc-ALCAM (from UniProt Q13740 28-527) (Fc fusion)

binding result (CD6 [3]): binds
B1: itolizumab (antibody, human IgG1, kappa, V domains shown)
VH: EVQLVESGGGLVKPGGSLKLSCAASGFKFSRYAMSWVRQAPGKRLEWVATISSGGSYIYYPDSVKGRFTISRDNVKNTLYLQMSSLRSEDTAMYYCARRDYDLDYFDSWGQGTLVTVSS
VL: DIQMTQSPSSLSASVGDRVTITCKASRDIRSYLTWYQQKPGKAPKTLIYYATSLADGVPSRFSGSGSGQDYSLTISSLESDDTATYYCLQHGESPFTLGSGTKLEIKR
notes: Humanized IgG1, produced at Biocon Ltd, used in soluble form; also called T1h; humanized IgG1 isotype anti-CD6 monoclonal antibody
